Numbered stars: 1 amine (or outer) side, 2 acyl side, 3 side chain; on linkers, the order of the positions; unused ones are H or OH. Bridge positions count the residues as written; N and C are the ends. Side chains are listed from the residue outwards. Ends that are not written are not given here. * marks the point of attachment. C20 diacid = O=C(O)CCCCCCCCCCCCCCCCCCC(=O)*; γGlu = O=C(O)[C@H](CCC(=O)[*:2])N[*:1]; AEEA = NCCOCCOCC(=O)O

Experiment [1] addresses T1, human amylin receptor (human, UniProt P30988 25-474; O60896 24-148, limits assumed).
T1 construct: whole, on cells; Used as cell membranes prepared from the Amylin 3(a)/CRE-luc BHK cells (Assay V); also called hAmylin-R; hAmylinR
T1 sequence (looked up) 1: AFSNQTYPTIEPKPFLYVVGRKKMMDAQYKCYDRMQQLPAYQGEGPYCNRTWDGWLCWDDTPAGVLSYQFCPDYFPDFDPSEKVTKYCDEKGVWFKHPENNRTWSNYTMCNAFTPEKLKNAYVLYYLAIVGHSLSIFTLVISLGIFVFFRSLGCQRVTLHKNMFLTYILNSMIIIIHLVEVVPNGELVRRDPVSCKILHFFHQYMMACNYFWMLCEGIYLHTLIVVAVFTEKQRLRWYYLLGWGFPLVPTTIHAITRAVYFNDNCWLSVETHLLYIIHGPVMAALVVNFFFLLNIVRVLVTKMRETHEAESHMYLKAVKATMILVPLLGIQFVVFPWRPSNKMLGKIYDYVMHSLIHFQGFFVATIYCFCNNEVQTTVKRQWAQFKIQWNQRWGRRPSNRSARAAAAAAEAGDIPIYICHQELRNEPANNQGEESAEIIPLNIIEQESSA
T1 sequence (looked up) 2: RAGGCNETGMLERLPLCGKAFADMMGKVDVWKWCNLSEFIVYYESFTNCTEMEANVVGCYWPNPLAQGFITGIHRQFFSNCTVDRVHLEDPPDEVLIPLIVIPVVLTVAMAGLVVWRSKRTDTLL
The experiment can be described thus: SPA competition vs 125I-rat amylin, membranes of amylin 3(a) receptor BHK cells (Assay V). The method, boiled down: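 Cell membranes were prepared by homogenisation in Na-HEPES/EDTA buffer, pH 7.4, and stored at −80° C. They were then coupled to SPA beads at 35 ng/μL final and exposed to compounds in assay buffer containing CaCl2, MgCl₂, OA and Tween20. After 120 min at 25° C, plates were counted and IC₅₀ derived.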

Experiment [2] has as its target T2, human calcitonin receptor (human, UniProt P30988 25-474).
T2 sequence (looked up): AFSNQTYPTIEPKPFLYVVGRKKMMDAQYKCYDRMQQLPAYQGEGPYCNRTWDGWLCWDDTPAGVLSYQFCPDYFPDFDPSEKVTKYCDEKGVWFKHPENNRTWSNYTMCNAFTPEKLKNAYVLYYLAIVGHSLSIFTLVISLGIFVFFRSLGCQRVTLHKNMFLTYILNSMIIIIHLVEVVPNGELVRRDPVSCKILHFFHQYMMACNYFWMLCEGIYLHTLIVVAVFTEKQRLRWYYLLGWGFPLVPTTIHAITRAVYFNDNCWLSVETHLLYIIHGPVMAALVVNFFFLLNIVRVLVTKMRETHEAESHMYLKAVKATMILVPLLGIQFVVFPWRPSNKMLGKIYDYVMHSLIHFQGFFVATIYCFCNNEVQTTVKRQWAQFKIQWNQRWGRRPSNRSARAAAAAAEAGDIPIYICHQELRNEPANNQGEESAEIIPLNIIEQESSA
Description: cell-based or functional assay.

Experiment [3] addresses T3, human amylin receptor (amylin 3(a) receptor: human calcitonin receptor with RAMP-3) (human, UniProt P30988 25-474; O60896 24-148, limits assumed).
T3 construct: whole, on cells; Whole cells in the luciferase assay (Assay II a); also called hAmylin-R; hAmylinR
T3 sequence (looked up) 1: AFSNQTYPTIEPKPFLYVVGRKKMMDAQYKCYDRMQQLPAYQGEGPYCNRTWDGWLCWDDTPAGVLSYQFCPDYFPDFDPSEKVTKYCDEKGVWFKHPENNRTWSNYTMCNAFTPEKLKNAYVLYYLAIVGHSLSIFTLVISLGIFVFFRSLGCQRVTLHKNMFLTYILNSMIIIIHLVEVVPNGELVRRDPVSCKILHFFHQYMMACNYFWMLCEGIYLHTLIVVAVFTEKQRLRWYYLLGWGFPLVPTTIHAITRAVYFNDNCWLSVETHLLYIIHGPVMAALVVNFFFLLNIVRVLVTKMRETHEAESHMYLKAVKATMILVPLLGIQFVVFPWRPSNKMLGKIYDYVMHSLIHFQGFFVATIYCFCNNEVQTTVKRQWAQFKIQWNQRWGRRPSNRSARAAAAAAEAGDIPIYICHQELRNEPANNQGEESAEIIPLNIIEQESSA
T3 sequence (looked up) 2: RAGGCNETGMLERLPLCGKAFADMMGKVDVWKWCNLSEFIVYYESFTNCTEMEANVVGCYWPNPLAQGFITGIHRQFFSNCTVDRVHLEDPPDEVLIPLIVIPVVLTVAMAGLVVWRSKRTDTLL
Description: SPA competition binding on membranes of BHK cells with human calcitonin receptor + RAMP-3; displacement of 125I-rat amylin (Assay V). The method, then: The binding assay was performed using scintillation proximity assay (SPA) beads (RPNQ0001) from PerkinElmer and cell membranes from the Amylin 3(a)/CRE-luc cells (as described in Assay (II)) were used. Membranes were prepared in the following way; the cells were rinsed with PBS and incubated with Versene for approximately 5 min before harvesting. The cells were flushed with PBS and the cell-suspension was centrifuged for 5 min at 1000 rpm. Cells were homogenized (ultrathurrax) in a buffer containing 20 mM Na-HEPES and 10 mM EDTA (pH 7.4) and centrifuged at 20.000 rpm for 15 min. The resulting pellet was resuspended, homogenized and centrifuged (20.000 rpm, 15 min) in a buffer containing 20 mM Na-HEPES and 0.1 mM EDTA (pH 7.4, buffer 2). The resulting pellet was resuspended in buffer 2 and protein concentration was measured (BCA protein Assay, Pierce). The homogenate was kept cold during the whole procedure. The membranes were kept at −80° C. until use. The assay was performed in a 384 well Optiplate (PerkinElmer) in a total volume of 40 ul. Membranes were mixed with SPA beads. Final concentration of membranes 35 ng/μL final and SPA beads was 0.05 mg/well. Test-compounds were dissolved in DMSO and further diluted in assay buffer (50 mM Hepes, pH 7.4, 1 mM CaCl2, 5 mM MgCl₂, 0.1% OA and 0.02% Tween20). […] The final mixture was incubated with shaking at 400 rpm for 120 min at 25° C. prior to centrifugation (1500 rpm, 10 min). Samples were analyzed on TopCounter™ (Packard). The IC₅₀ was calculated using (one site binding competition analysis) GraphPad Prism5 as a measure of receptor affinity.
In general terms: Displacement assays read how much labelled ligand stays bound in the presence of the test substance.

B1: N^ε-[2-[2-[2-[[(4S)-4-carboxy-4-(19-carboxynonadecanoylamino)butanoyl]amino]ethoxy]ethoxy]acetyl]Lys[Arg1,Arg17,Pro21,Pro27,His35]-h-amylin (peptide)
peptide: K([AEEA-γGlu-C20 diacid])RCNTATCATQRLANFLRHSSPNFGAIPSSTNVGSHTY-NH2
modifications: disulfide 3-8; N-terminus assumed
SMILES: CC[C@H](C)[C@H](NC(=O)[C@H](C)NC(=O)CNC(=O)[C@H](Cc1ccccc1)NC(=O)[C@H](CC(N)=O)NC(=O)[C@@H]1CCCN1C(=O)[C@H](CO)NC(=O)[C@H](CO)NC(=O)[C@H](Cc1c[nH]cn1)NC(=O)[C@H](CCCNC(=N)N)NC(=O)[C@H](CC(C)C)NC(=O)[C@H](Cc1ccccc1)NC(=O)[C@H](CC(N)=O)NC(=O)[C@H](C)NC(=O)[C@H](CC(C)C)NC(=O)[C@H](CCCNC(=N)N)NC(=O)[C@H](CCC(N)=O)NC(=O)[C@@H](NC(=O)[C@H](C)NC(=O)[C@@H]1CSSC[C@H](NC(=O)[C@H](CCCNC(=N)N)NC(=O)[C@@H](N)CCCCNC(=O)COCCOCCNC(=O)CC[C@H](NC(=O)CCCCCCCCCCCCCCCCCCC(=O)O)C(=O)O)C(=O)N[C@@H](CC(N)=O)C(=O)N[C@@H]([C@@H](C)O)C(=O)N[C@@H](C)C(=O)N[C@@H]([C@@H](C)O)C(=O)N1)[C@@H](C)O)C(=O)N1CCC[C@H]1C(=O)N[C@@H](CO)C(=O)N[C@@H](CO)C(=O)N[C@H](C(=O)N[C@@H](CC(N)=O)C(=O)N[C@H](C(=O)NCC(=O)N[C@@H](CO)C(=O)N[C@@H](Cc1c[nH]cn1)C(=O)N[C@H](C(=O)N[C@@H](Cc1ccc(O)cc1)C(N)=O)[C@@H](C)O)C(C)C)[C@@H](C)O
notes: also called compound 45
For the molecule B1, in experiment [1], the IC50 (as a rule, the concentration that inhibits the measured activity by half) is 0.552 nM.

B2: N^α1-[2-[2-[2-[[2-[2-[2-[[(4S)-4-carboxy-4-(19-carboxynonadecanoylamino)butanoyl]amino]ethoxy]ethoxy]acetyl]amino]ethoxy]ethoxy]acetyl]-[Glu14,Arg17,Pro21,Pro27 … (peptide)
peptide: {C20 diacid-γGlu-AEEA-AEEA}-KCNTATCATQRLAEFLRHSSPNFGAIPSSTNVGSNTP-NH2
modifications: disulfide 2-7
SMILES: CC[C@H](C)[C@H](NC(=O)[C@H](C)NC(=O)CNC(=O)[C@H](Cc1ccccc1)NC(=O)[C@H](CC(N)=O)NC(=O)[C@@H]1CCCN1C(=O)[C@H](CO)NC(=O)[C@H](CO)NC(=O)[C@H](Cc1c[nH]cn1)NC(=O)[C@H](CCCNC(=N)N)NC(=O)[C@H](CC(C)C)NC(=O)[C@H](Cc1ccccc1)NC(=O)[C@H](CCC(=O)O)NC(=O)[C@H](C)NC(=O)[C@H](CC(C)C)NC(=O)[C@H](CCCNC(=N)N)NC(=O)[C@H](CCC(N)=O)NC(=O)[C@@H](NC(=O)[C@H](C)NC(=O)[C@@H]1CSSC[C@H](NC(=O)[C@H](CCCCN)NC(=O)COCCOCCNC(=O)COCCOCCNC(=O)CC[C@H](NC(=O)CCCCCCCCCCCCCCCCCCC(=O)O)C(=O)O)C(=O)N[C@@H](CC(N)=O)C(=O)N[C@@H]([C@@H](C)O)C(=O)N[C@@H](C)C(=O)N[C@@H]([C@@H](C)O)C(=O)N1)[C@@H](C)O)C(=O)N1CCC[C@H]1C(=O)N[C@@H](CO)C(=O)N[C@@H](CO)C(=O)N[C@H](C(=O)N[C@@H](CC(N)=O)C(=O)N[C@H](C(=O)NCC(=O)N[C@@H](CO)C(=O)N[C@@H](CC(N)=O)C(=O)N[C@H](C(=O)N1CCC[C@H]1C(N)=O)[C@@H](C)O)C(C)C)[C@@H](C)O
notes: also called compound 20
Turning to B2, the “Ratio hCT/hAmylin funct.” value in experiment [2] is 3.6 ratio. For the same molecule, in experiment [3], the 50% inhibitory concentration (IC50) came to 0.217 nM.

B3: N^α1-[(4S)-4-carboxy-4-(19-carboxynonadecanoylamino)butanoyl]-[Asp14,Arg17,Pro21,Pro27,Pro37]-h-amylin (peptide)
peptide: {C20 diacid-γGlu}-KCNTATCATQRLADFLRHSSPNFGAIPSSTNVGSNTP-NH2
modifications: disulfide 2-7
SMILES: CC[C@H](C)[C@H](NC(=O)[C@H](C)NC(=O)CNC(=O)[C@H](Cc1ccccc1)NC(=O)[C@H](CC(N)=O)NC(=O)[C@@H]1CCCN1C(=O)[C@H](CO)NC(=O)[C@H](CO)NC(=O)[C@H](Cc1c[nH]cn1)NC(=O)[C@H](CCCNC(=N)N)NC(=O)[C@H](CC(C)C)NC(=O)[C@H](Cc1ccccc1)NC(=O)[C@H](CC(=O)O)NC(=O)[C@H](C)NC(=O)[C@H](CC(C)C)NC(=O)[C@H](CCCNC(=N)N)NC(=O)[C@H](CCC(N)=O)NC(=O)[C@@H](NC(=O)[C@H](C)NC(=O)[C@@H]1CSSC[C@H](NC(=O)[C@H](CCCCN)NC(=O)CC[C@H](NC(=O)CCCCCCCCCCCCCCCCCCC(=O)O)C(=O)O)C(=O)N[C@@H](CC(N)=O)C(=O)N[C@@H]([C@@H](C)O)C(=O)N[C@@H](C)C(=O)N[C@@H]([C@@H](C)O)C(=O)N1)[C@@H](C)O)C(=O)N1CCC[C@H]1C(=O)N[C@@H](CO)C(=O)N[C@@H](CO)C(=O)N[C@H](C(=O)N[C@@H](CC(N)=O)C(=O)N[C@H](C(=O)NCC(=O)N[C@@H](CO)C(=O)N[C@@H](CC(N)=O)C(=O)N[C@H](C(=O)N1CCC[C@H]1C(N)=O)[C@@H](C)O)C(C)C)[C@@H](C)O
notes: also called compound 10
In the case of B3, the “Ratio hCT/hAmylin funct.” value in experiment [2] was 1 ratio. In experiment [3], the IC50 worked out at 0.082 nM.

The record behind these values is patent US20140087995A1 (published 2014).
